Laboratory results taken from publication PMC314469, “Protein Interaction Networks by Proteome Peptide Scanning” (PLoS Biology, 2004).

T1: Boi2 SH3 (BOI2_YEAST), P39969
T1 chain: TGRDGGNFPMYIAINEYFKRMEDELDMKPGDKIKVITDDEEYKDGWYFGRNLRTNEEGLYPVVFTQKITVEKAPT

T2: Myo5 SH3 (MYO5_YEAST), Q04439
T2 chain: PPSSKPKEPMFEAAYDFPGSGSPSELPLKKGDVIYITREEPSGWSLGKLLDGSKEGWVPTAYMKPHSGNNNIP

T3: Yhr016c SH3 (YSC84_YEAST), P32793
T3 chain: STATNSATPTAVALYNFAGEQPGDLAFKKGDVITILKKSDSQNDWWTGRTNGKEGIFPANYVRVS

T4: Boi1 SH3 (BOI1_YEAST), P38041
T4 chain: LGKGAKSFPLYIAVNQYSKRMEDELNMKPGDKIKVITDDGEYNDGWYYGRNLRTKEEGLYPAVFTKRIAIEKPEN

T5: Rvs167 SH3 (RV167_YEAST), P39743
T5 chain: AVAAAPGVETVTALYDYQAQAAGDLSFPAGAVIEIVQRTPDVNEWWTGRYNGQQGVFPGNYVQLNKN

T6: Yfr024 SH3 (LSB3_YEAST), P43603
T6 chain: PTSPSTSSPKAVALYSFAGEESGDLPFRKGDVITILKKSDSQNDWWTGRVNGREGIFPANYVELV


How the values were obtained:
Assay in all cases: SPOT array
[1] = target: T1, Boi2 SH3 (BOI2_YEAST), P39969
[2] = target: T2, Myo5 SH3 (MYO5_YEAST), Q04439
[3] = target: T3, Yhr016c SH3 (YSC84_YEAST), P32793
[4] = target: Sho1 SH3 (SHO1_YEAST), P40073
Chain of Sho1 SH3 (SHO1_YEAST), P40073 (P40073 295-366): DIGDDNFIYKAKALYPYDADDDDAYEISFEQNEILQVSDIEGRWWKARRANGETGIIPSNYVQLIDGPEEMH

[5] = target: T4, Boi1 SH3 (BOI1_YEAST), P38041
[6] = target: T5, Rvs167 SH3 (RV167_YEAST), P39743
[7] = target: T6, Yfr024 SH3 (LSB3_YEAST), P43603

Row | Binder | normalised SPOT signal, Boehringer light units (BLU); mean over the file's lines of this peptide [1] | normalised SPOT signal, Boehringer light units (BLU); mean over the file's lines of this peptide [2] | normalised SPOT signal, Boehringer light units (BLU); mean over the file's lines of this peptide [3] | normalised SPOT signal, Boehringer light units (BLU); mean over the file's lines of this peptide [4] | normalised SPOT signal, Boehringer light units (BLU); mean over the file's lines of this peptide [5] | normalised SPOT signal, Boehringer light units (BLU); mean over the file's lines of this peptide [6] | normalised SPOT signal, Boehringer light units (BLU); mean over the file's lines of this peptide [7]
1 | MSWSKERPESPLSR [YDR265W 311-324] | 104 | 268 | 168 | 155 | 1020 | 243 | 1750
2 | MRRSKDAPIEPPKY [YOR346W 669-682] | 688 | 155 | 1050 | 149 | 555 | 1200 | 2300
3 | NAPERAVPILPPRN [YBR108W 539-552] | 83 | 741 | 36600 | 52.7 | 3280 | 16500 | 24400
4 | MYDRKVIPRMPWHD [YKR031C 861-874] | 395 | 357 | 742 | 569 | 7810 | 1490 | 1600
5 | MTQPKKNPMEPKTD [YDL148C 252-265] | 76.8 | 147 | 60.7 | 15.9 | 37.8 | 181 | 404
6 | NDNEKKKPSSPTAA [YLL010C 80-93] | 61 | 98.5 | 20.6 | 39.5 | 212 | 80.7 | 36.9
7 | NELVKRFPGHPPLR [YHR108W 109-122] | 7.9 | 300 | 101 | 37.2 | 733 | 55.2 | 211
8 | MTVPRNRPMAPFGT [YLR064W 1-14] | 55.2 | 596 | 213 | 186 | 1210 | 187 | 466
9 | NAPPRIFPKAPIYG [YDR283C 1060-1073] | 40.1 | 168 | 186 | 140 | 8550 | 156 | 2080
10 | NEFAKFAPDLPVLK [YFR038W 287-300] | 12.3 | 135 | 7.9 | 99.4 | 24.4 | 69 | 132

The next lines start with the values.

Row | normalised SPOT signal, Boehringer light units (BLU); mean over the file's lines of this peptide [1] | normalised SPOT signal, Boehringer light units (BLU); mean over the file's lines of this peptide [2] | normalised SPOT signal, Boehringer light units (BLU); mean over the file's lines of this peptide [3] | normalised SPOT signal, Boehringer light units (BLU); mean over the file's lines of this peptide [4] | normalised SPOT signal, Boehringer light units (BLU); mean over the file's lines of this peptide [5] | normalised SPOT signal, Boehringer light units (BLU); mean over the file's lines of this peptide [6] | normalised SPOT signal, Boehringer light units (BLU); mean over the file's lines of this peptide [7] | Binder
11 | 4920 | 21400 | 1430 | 12100 | 75800 | 23000 | 1590 | NDLVKRFPEQPPLR [YBR195C 105-118]
12 | 54 | 114 | 203 | 13000 | 71 | 56.7 | 710 | NDMAKPLPTPPTAE [YOR188W 2-15]
13 | 22 | 176 | 17.2 | 32.2 | 462 | 60.6 | 246 | NELIKQGPKRPTSA [YMR072W 36-49]
14 | 326 | 290 | 118 | 145 | 131 | 375 | 898 | MYGSKFIPFGPKSQ [YER038C 415-428]
15 | 17.3 | 140 | 37.1 | 26 | 52.4 | 47.9 | 63.4 | NDDKKTEPDKPAFS [YJL041W 186-199]
16 | 88.8 | 176 | 79.9 | 48.6 | 156 | 116 | 371 | NAQLRKTPLEPGLE [YDL126C 668-681]
